Results reported in patent publication US20110311550A1 (Scripps Research, published 2011).

B1: MAb AR3D (antibody, V domains shown)
VH: LEQSGAEVKKPGSSVKVSCKASGDTFRSYVITWARQAPGQGLEWMGAIIPFFGTTNLAQKFQGRVTITADESTKTVYMDLSSLRSDDTAVYYCAKAGDLSVGGVLAGGVPHLRHFDPWGQGTLVTVSS
VL: ELTQSPGTLSLSPGERATLSCRAGQTVASNSLAWYQHKPGQAPRLLIYGASIRASGIPDRFSGSGSGTDFTLTISRLEPEDFAVYYCQQYGLSSTFGQGTRLEIKR
notes: also called IgG1 of Fab L4
B2: MAb AR3C (antibody, V domains shown)
VH: LEQSGAEVKKPGSSVKVSCETSGGTLDNYALNWVRQAPGQGLEWIGGVVPLFGTTRNAQKFQGRVTISDDKSTGTGHMELRSLRSEDTAVYYCVRSVTPRYCGGGFCYGEFDYWGQGTLVTVSS
VL: ELTQSPATLSVSPGERATLSCRASQSVSSNLAWYQQKPGQAPRLLIYGASTRATGIPARFSGSGSGTEFTLTVSRLEPEDSAVYFCQQYYRSPLTFGGGTKVEIKR
notes: also called IgG1 of Fab H3
B3: MAb AR1B (antibody, V domains shown)
VH: LESGGGLVQPGGSLRLSCEASGYYFSSFAMSWVRQTPGKGLEWVSSIAGGTLGRTSYRDSVKGRFTISRDNSKNTVFLHMNNLRPEDTAVYYCAKDPLLFAGGPNWFDHWGQGTLVTVSS
VL: not shown
notes: also called IgG1 of Fab D1
B4: MAb AR1A (antibody, V domains shown)
VH: LEQSGAEVKKPGSSVKVSCRASGSPYSSYTITWVRQAPGQGLEWMGGIILMTGKANYAQKFQGRVTITADRATATAYMEMSSLTSDDTAIYYCARDPYVYAGDDVRSLSRWGQGTPVIVSS
VL: not shown
notes: also called IgG1 of Fab B2
B5: MAb AR2A (antibody, V domains shown)
VH: LEQSGAEMKKPGASLKVSCKTSGYTFDDYGVTWVRQAPGQGLEWMGWISAYSGNTFYARKFQGRVTMTTDPSTRTAYMELRSLRSDDTAVYFCARDRGLAINGVVFPYFGLDVWGQGTTVTVSS
VL: ELTQSPVSLPVTPGEPASISCRSSQSLLHSNGNHYLDWYLQKPGQSPQLLMYLGSNRASGVPDRFSGSGSGTDFTLKISRVEAEDVGVYYCMQGLQTPWTFGQGTKVEIKR
notes: also called IgG1 of Fab G

Columns and labels:
H77 E1E2 mutant F550A = H77 E1E2 mutant F550A (HCV isolate H77, UniProt P27958 192-383; P27958 384-746); assay: ELISA, alanine mutant E1E2
H77 E1E2 mutant W549A = H77 E1E2 mutant W549A (HCV isolate H77, UniProt P27958 192-383; P27958 384-746); assay: ELISA, alanine mutant E1E2
H77 E1E2 mutant G418A = H77 E1E2 mutant G418A (HCV isolate H77, UniProt P27958 192-383; P27958 384-746); assay: ELISA, alanine mutant E1E2
H77 E1E2 mutant N423A = H77 E1E2 mutant N423A (HCV isolate H77, UniProt P27958 192-383; P27958 384-746); assay: ELISA, alanine mutant E1E2
H77 E1E2 mutant Y485A = H77 E1E2 mutant Y485A (HCV isolate H77, UniProt P27958 192-383; P27958 384-746); assay: ELISA, alanine mutant E1E2
H77 E1E2 mutant P544A = H77 E1E2 mutant P544A (HCV isolate H77, UniProt P27958 192-383; P27958 384-746); assay: ELISA, alanine mutant E1E2
H77 E1E2 mutant L413A = H77 E1E2 mutant L413A (HCV isolate H77, UniProt P27958 192-383; P27958 384-746); assay: ELISA, alanine mutant E1E2
H77 E1E2 mutant W420A = H77 E1E2 mutant W420A (HCV isolate H77, UniProt P27958 192-383; P27958 384-746); assay: ELISA, alanine mutant E1E2
H77 E1E2 mutant G523A = H77 E1E2 mutant G523A (HCV isolate H77, UniProt P27958 192-383; P27958 384-746); assay: ELISA, alanine mutant E1E2
H77 E1E2 mutant V538A = H77 E1E2 mutant V538A (HCV isolate H77, UniProt P27958 192-383; P27958 384-746); assay: ELISA, alanine mutant E1E2
[1] = target: T1, E1E2 complex of HCV isolate H77 (genotype 1a), wild type (HCV isolate H77, UniProt P27958 192-383; P27958 384-746); assay: competition ELISA on H77 E1E2; competitor m40 (Fab N4)
[2] = target: T2, vaccinia-expressed E1E2 complex, isolate HCV-1 (genotype 1a) (hepatitis C virus, isolate HCV-1, UniProt P26664 192-383; P26664 384-746); assay: competition ELISA on HCV-1 E1E2; competitor m2 (AR1B)
[3] = target: E1E2 (Env) of HCV isolate UKN1B12.16 (genotype 1b) on HCVpp (hepatitis C virus, isolate UKN1B12.16); assay: cell-based or functional assay
[4] = target: E1E2 (Env) of HCV isolate OH8 (genotype 1b) on HCVpp (hepatitis C virus, isolate OH8); assay: cell-based or functional assay
[5] = target: E1E2 (Env) of HCV isolate UKN5.15.7 (genotype 5) on HCVpp (hepatitis C virus, isolate UKN5.15.7); assay: cell-based or functional assay
[6] = target: E1E2 (Env) of HCV isolate UKN4.21.16 (genotype 4) on HCVpp (hepatitis C virus, isolate UKN4.21.16); assay: cell-based or functional assay
[7] = target: T1, E1E2 complex of HCV isolate H77 …; assay: cell-based or functional assay
[8] = target: E1E2 (Env) of HCV isolate J6 (genotype 2a) on HCVpp (hepatitis C virus, isolate J6, UniProt P26660 192-383; P26660 384-750); assay: cell-based or functional assay
[9] = target: T2, vaccinia-expressed E1E2 complex, …; assay: competition ELISA on HCV-1 E1E2; competitor m1 (AR1A)
[10] = target: T2, vaccinia-expressed E1E2 complex, …; assay: competition ELISA on HCV-1 E1E2; competitor m28 (1/39)
[11] = target: T2, vaccinia-expressed E1E2 complex, …; assay: competition ELISA on HCV-1 E1E2; competitor m3 (AR2A)
[12] = target: T2, vaccinia-expressed E1E2 complex, …; assay: competition ELISA on HCV-1 E1E2; competitor m20 (CBH-2)
[13] = target: T1, E1E2 complex of HCV isolate H77 …; assay: competition ELISA on H77 E1E2; competitor m43 (Fab P1a)
[14] = target: T1, E1E2 complex of HCV isolate H77 …; assay: competition ELISA on H77 E1E2; competitor m44 (Fab P2)
[15] = target: T2, vaccinia-expressed E1E2 complex, …; assay: competition ELISA on HCV-1 E1E2; competitor m24 (7/59)

Binder | binding vs wild-type E1E2 (H77 E1E2 mutant F550A) [%] | binding vs wild-type E1E2 (H77 E1E2 mutant W549A) [%] | binding vs wild-type E1E2 (H77 E1E2 mutant G418A) [%] | binding vs wild-type E1E2 (H77 E1E2 mutant N423A) [%] | binding vs wild-type E1E2 (H77 E1E2 mutant Y485A) [%] | binding vs wild-type E1E2 (H77 E1E2 mutant P544A) [%] | % residual binding [1] [%] | % residual binding [2] [%] | Neutralizing activity (IC50) on HCVpp [3] [µg/mL] | Neutralizing activity (IC50) on HCVpp [4] [µg/mL] | Neutralizing activity (IC50) on HCVpp [5] [µg/mL] | Neutralizing activity (IC50) on HCVpp [6] [µg/mL] | Neutralizing activity (IC50) on HCVpp [7] [µg/mL] | Neutralizing activity (IC50) on HCVpp [8] [µg/mL] | % residual binding [9] [%] | % residual binding [10] [%] | % residual binding [11] [%] | % residual binding [12] [%] | % residual binding [13] [%] | % residual binding [14] [%] | also measured
B1 | 320 | 274 | 60 | 65 | 145 | 318 | 92 | 92 | 1 | 5 | 10 | 1 | 1 | 50 | 43 | 80 | 75 | 51 | 138 | 138 | binding vs wild-type E1E2 (H77 E1E2 mutant L413A): 83%; binding vs wild-type E1E2 (H77 E1E2 mutant W420A): 68%; binding vs wild-type E1E2 (H77 E1E2 mutant G523A): 48%; binding vs wild-type E1E2 (H77 E1E2 mutant V538A): 95%
B2 | – | – | – | – | – | – | 112 | 91 | 1 | 5 | 1 | 1 | 1 | 10 | 34 | 83 | 83 | 65 | 145 | 140 | % residual binding [15]: 95%
B3 | 257 | 0 | 143 | 38 | 30 | 16 | 95 | 6 | > 50 | > 50 | > 50 | > 50 | > 50 | > 50 | 15 | 89 | 89 | 98 | 100 | 99 | binding vs wild-type E1E2 (H77 E1E2 mutant L413A): 109%; binding vs wild-type E1E2 (H77 E1E2 mutant W420A): 41%; binding vs wild-type E1E2 (H77 E1E2 mutant G523A): 33%; binding vs wild-type E1E2 (H77 E1E2 mutant V538A): 52%; % residual binding [15]: 77%
B4 | 379 | 0 | 51 | 79 | 17 | 69 | 94 | 15 | > 50 | > 50 | > 50 | > 50 | > 50 | > 50 | 15 | 84 | 100 | 83 | 88 | 91 | binding vs wild-type E1E2 (H77 E1E2 mutant L413A): 103%; binding vs wild-type E1E2 (H77 E1E2 mutant W420A): 141%; binding vs wild-type E1E2 (H77 E1E2 mutant G523A): 112%; binding vs wild-type E1E2 (H77 E1E2 mutant V538A): 17%; % residual binding [15]: 70%
B5 | 156 | 151 | 83 | 69 | 67 | 126 | 74 | 57 | > 50 | > 50 | 10 | 1 | 1 | > 50 | 76 | 90 | 15 | 93 | 82 | 82 | binding vs wild-type E1E2 (H77 E1E2 mutant L413A): 92%; binding vs wild-type E1E2 (H77 E1E2 mutant W420A): 80%; binding vs wild-type E1E2 (H77 E1E2 mutant G523A): 129%; binding vs wild-type E1E2 (H77 E1E2 mutant V538A): 62%; % residual binding [15]: 99%
